Experimental findings from patent US20240287172A1 (SCIRHOM, published 2024) are described below.

For one experiment, the target named is T1, miR2-FL-WT-FLAG (mouse, UniProt Q80WQ6 1-827).
T1 construct: on MEF-DKO cells
T1 sequence: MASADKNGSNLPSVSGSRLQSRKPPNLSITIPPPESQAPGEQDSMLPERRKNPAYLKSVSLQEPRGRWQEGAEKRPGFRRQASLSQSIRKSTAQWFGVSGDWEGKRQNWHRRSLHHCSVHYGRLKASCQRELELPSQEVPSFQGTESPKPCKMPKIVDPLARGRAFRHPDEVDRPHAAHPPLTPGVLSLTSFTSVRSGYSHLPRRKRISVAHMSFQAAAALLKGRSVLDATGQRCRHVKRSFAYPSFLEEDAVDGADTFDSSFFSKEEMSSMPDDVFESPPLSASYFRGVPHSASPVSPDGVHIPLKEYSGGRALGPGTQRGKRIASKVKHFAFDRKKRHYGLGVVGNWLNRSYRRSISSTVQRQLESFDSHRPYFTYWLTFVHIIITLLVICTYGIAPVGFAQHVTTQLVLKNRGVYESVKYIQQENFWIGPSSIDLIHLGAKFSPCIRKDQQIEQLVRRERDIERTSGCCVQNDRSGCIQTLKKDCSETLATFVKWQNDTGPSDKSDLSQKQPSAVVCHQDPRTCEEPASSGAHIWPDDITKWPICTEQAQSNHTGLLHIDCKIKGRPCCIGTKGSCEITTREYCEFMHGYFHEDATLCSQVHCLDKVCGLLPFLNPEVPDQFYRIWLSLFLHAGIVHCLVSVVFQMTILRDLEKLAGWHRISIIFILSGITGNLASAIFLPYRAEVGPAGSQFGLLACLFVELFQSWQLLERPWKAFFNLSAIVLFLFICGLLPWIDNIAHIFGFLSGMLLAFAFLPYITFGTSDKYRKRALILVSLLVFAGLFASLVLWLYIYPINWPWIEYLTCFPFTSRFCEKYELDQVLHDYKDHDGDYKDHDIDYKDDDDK
The experiment is described as follows: FACS, MEF-DKO-miR2-FL-WT-FLAG cells. The method, then: In brief, immortalized MEF-DKO-EV control cells, MEF-DKO-hiR2-FL-WT-FLAG cells and MEF-DKO-miR2-FL-WT-FLAG cells were harvested with 10 mM EDTA in PBS, washed and resuspended in FACS buffer (PBS, 3% FBS, 0.05% sodium azide), and seeded in Nunc U-bottom 96-well plates (Thermo Fisher Scientific, USA) at approximately 3×10⁵ cells per well. To pellet cells and remove supernatants, the plates were centrifuged at 1,500 rpm and 4° C. for 3 minutes. For primary staining, cells were resuspended in 100 μl per well of either FACS buffer alone (controls), mouse monoclonal anti-FLAG IgG (Sigma-Aldrich, USA) at 3 μg/ml FACS buffer or the antibodies of the invention also at 3 μg/ml FACS buffer and incubated on ice for 1 hour. Afterwards, plates were centrifuged at 1,500 rpm and 4° C. for 3 minutes and washed twice with 200 μl per well of FACS buffer. For secondary staining, cells were spun down and resuspended in 100 μl per well of PE-conjugated goat anti-mouse IgG F(ab′)2 detection fragment (Dianova, Germany) diluted 1:100 in FACS buffer. Protected from light, the cell suspensions were incubated on ice for 1 hour. Plates were then centrifuged at 1,500 rpm and 4° C. for 3 minutes and washed three times with 200 μl per well of FACS buffer. Finally, cells were resuspended in 150 μl per well of FACS buffer and analyzed using a BD Accuri™ C6 Plus flow cytometer (Becton Dickinson, Germany).

Experiment [1] deals with T2, dog iRhom2 full length wild type, T7-tagged (dog, UniProt Q00M95 1-827).
T2 construct: whole, on cells; on MEF-DKO cells; also called Dog-iR2-FL-WT-T7
T2 sequence: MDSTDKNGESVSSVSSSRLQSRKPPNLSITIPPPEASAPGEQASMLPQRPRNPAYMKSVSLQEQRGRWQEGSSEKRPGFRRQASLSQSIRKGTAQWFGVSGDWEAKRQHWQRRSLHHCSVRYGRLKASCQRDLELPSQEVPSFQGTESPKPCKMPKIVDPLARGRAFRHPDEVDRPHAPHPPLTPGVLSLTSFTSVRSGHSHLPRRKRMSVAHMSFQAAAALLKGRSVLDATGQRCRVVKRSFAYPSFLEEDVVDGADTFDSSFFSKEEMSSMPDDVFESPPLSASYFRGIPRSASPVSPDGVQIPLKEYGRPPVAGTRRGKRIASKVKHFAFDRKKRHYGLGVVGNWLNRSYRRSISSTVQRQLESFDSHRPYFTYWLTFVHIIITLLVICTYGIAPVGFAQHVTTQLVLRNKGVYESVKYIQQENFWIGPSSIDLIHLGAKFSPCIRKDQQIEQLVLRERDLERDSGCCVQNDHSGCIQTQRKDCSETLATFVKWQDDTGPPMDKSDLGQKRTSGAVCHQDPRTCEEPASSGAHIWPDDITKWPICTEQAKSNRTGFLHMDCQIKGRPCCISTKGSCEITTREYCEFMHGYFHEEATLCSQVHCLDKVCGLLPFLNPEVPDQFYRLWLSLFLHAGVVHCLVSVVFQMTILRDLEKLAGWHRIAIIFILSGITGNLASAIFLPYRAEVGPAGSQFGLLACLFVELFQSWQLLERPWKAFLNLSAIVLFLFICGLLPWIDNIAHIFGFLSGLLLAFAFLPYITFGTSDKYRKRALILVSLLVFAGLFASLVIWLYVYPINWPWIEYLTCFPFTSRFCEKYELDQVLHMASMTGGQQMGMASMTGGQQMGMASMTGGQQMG
Briefly: FACS, MEF-DKO cells; via representative antibody 16. The protocol:
In brief, immortalized MEF-DKO-EV control cells, MEF-DKO-rhesus-iR2-FL-WT-T7 cells, MEF-DKO-cyno-iR2-FL-WT-T7 cells, MEF-DKO-dog-iR2-FL-WT-T7 cells and MEF-DKO-rabbit-iR2-FL-WT-T7 cells, as well as their respective iRhom1 counterparts, were harvested with 10 mM EDTA in PBS, washed and resuspended in FACS buffer (PBS, 3% FBS, 0.05% sodium azide), and seeded in Nunc U-bottom 96-well plates (Thermo Fisher Scientific, USA) at approximately 3×10⁵ cells per well. To pellet cells and remove supernatants, the plates were centrifuged at 1,500 rpm and 4° C. for 3 minutes. For primary staining, cells were resuspended in 100 μl per well of either FACS buffer alone (controls), mouse monoclonal anti-T7 IgG (Merck Millipore, USA) at 3 μg/ml FACS buffer or the antibodies of the invention also at 3 μg/ml FACS buffer and incubated on ice for 1 hour.
Afterwards, plates were centrifuged at 1,500 rpm and 4° C. for 3 minutes and washed twice with 200 μl per well of FACS buffer. For secondary staining, cells were spun down and resuspended in 100 μl per well of PE-conjugated goat anti-mouse IgG F(ab′)2 detection fragment (Dianova, Germany) diluted 1:100 in FACS buffer. Protected from light, the cell suspensions were incubated on ice for 1 hour. Plates were then centrifuged at 1,500 rpm and 4° C. for 3 minutes and washed three times with 200 μl per well of FACS buffer. Finally, cells were resuspended in 150 μl per well of FACS buffer and analyzed using a BD Accuri™ C6 Plus flow cytometer (Becton Dickinson, Germany).
For orientation: In flow cytometry, cells or beads pass a laser one at a time.

Substitutions are numbered along the chain they refer to.

B1: antibody 56 (antibody, V domains shown)
VH: QVTLKESGPGILQPSQTLSLTCSFSGFSLSTFGMGVGWIRQPSGKGLEWLTNIWWDDDKYYNSVLKSRLTISKDTSKNQVFLKIANVDTADTATYYCARIAAYGSNYWYFDVWGTGTTVTVSS
VL: QIVLTQSPAIMSASPGEKVTMTCSASSSVSYMYWYQQKPGSSPRVLIYDTSNLSSGVPVRFSGSGSGTSYSLTISRMEAEDAATYYCQQWSSYPLTFGAGTKLELK
notes: mouse IgG, kappa light chain; also called clone #56
For B1, the binding result with miR2-FL-WT-FLAG is “no binding (tested: 3 µg/ml)”; in experiment [1], “binds”.

B2: antibody 54 (antibody, V domains shown)
VH: QVTLKESGPGILQPSQTLSLTCSFSGFSLSTFGLGVGWIRQPSGKGLECLAHIWWDDDKYSNPALKSRLTISKDTSKNQVFLKIANVDSADTATYFCARILNYGSNYWYFDVWGTGTTVTVSS
VL: B1 VL with I10L, V29I, V45L, S54A, Y70F, I74V, S91N
notes: mouse IgG, kappa light chain; also called clone #54
In the case of B2, the results for the binding result (in the experiment with miR2-FL-WT-FLAG; in experiment [1]) were “no binding (tested: 3 µg/ml)” and “binds”, respectively.

B3: antibody 48 (antibody, V domains shown)
VH: QVQLQQSGTELVRPGTSVKVSCKASGYAFTNYLIEWVKQRPGQGLEWIGVINPGSGFTKYNEKFKGKATLTADKSSSTVYMHLSSLTSEDSAVYFCARGLYRAMDYWGQGTSVTVSS
VL: DIQMTQSPASQSASLGESVTITCLASQTIATWLAWYQQKPGKSPQLLIYGATTLADGVPSRFSGGGSGTKFSFKISSLQAEDFVSYYCQQLYSTPYTFGGGTKLEIK
notes: mouse IgG, kappa light chain; also called clone #48; purified antibody 48
Consider B3, for which the binding result with miR2-FL-WT-FLAG is listed as “no binding (tested: 3 µg/ml)”; in experiment [1] it was “binds”.

B4: antibody 47 (antibody, V domains shown)
VH: B3 VH with T9A, K59N, T69I, T71N, V79A, H82Q, S84I, G99D, Y101K, Y106H
VL: B3 VL with A30G, Y49H, G50A, T53S, G65S, L91I, T94S
notes: mouse IgG, kappa light chain; also called clone #47
As to B4, the binding result was “no binding (tested: 3 µg/ml)” with miR2-FL-WT-FLAG and “binds” in experiment [1].

B5: antibody 50 (antibody, V domains shown)
VH: B3 VH with T9A, T16A, T30S, V79A, H82Q
VL: B3 VL with A30G, G50A, T52A, T53S, S85N, L91I
notes: mouse IgG, kappa light chain; also called clone #50; purified antibody 50
As to B5, the binding result with miR2-FL-WT-FLAG is listed as “no binding (tested: 3 µg/ml)”; in experiment [1], “binds”.

B6: antibody 51 (antibody, V domains shown)
VH: QVQLQQSGAELVKPGASVKISCKASGYTFSNYWMNWVKQRPGKGLEWIGQIYPGDGDTKYNGKFKNKATLTADKSSSTAYMQFSSLTSEDSAVYFCARGDLVFVYWGLGTLVTVSA
VL: DVQITQSPSYLAVSPGETITINCRASKNIRKYLAWYQEKPGKTNKLLIYSGSTSQSGVPSRFSGSGSGTDFTLTISSLEPEDFAMYYCQQHNEYPYTFGGGTKLEIK
notes: mouse IgG, kappa light chain; also called clone #51
As to B6, the binding result was “no binding (tested: 3 µg/ml)” with miR2-FL-WT-FLAG and “binds” in experiment [1].
